Experiments:
Type in all cases: cell-based, Streptococcus suis
S. suis 6112 (ST1) = assay: ΔPlySs1 OD600 lysis, 1 hr, optimal buffering conditions
Experimental: (§1) Truncated PlySs1(ΔPlySs1) lysin activity was determined against different cell types. Given the above experiments, the following optimal buffering conditions were employed for all further in vitro experiments with ΔPlySs1: 20 mM phosphate buffer, pH=7.8, 2 mM EDTA. A range of lysin concentrations, from 6.5-130 μg/ml, were introduced to live S. suis cells in this buffer. Three strains were considered particularly relevant: 7711, the serotype 7 strain that encodes PlySs1; S735, the serotype 2 reference strain; and 7997, a highly virulent serotype 9 strain. In terms of bacterial viability, only the highest PlySs1-concentration (130 μg/ml) led to a >90% decrease in CFUs for 7711, S735, and 7997 after 1 hr treatment (TABLE 2). The lysin was also tested against actively-dividing cells in broth culture (strain 7711) (FIG. 20).
(§2) ΔPlySs1 was further tested against a panel of 19 other S. suis strains of diverse serotypes, as well as other species of Gram-positive bacteria. The same lysin concentrations were used as above. For each dosage, the observed lysis values after 1 hr are listed in TABLE 3 and TABLE 4, and the information is summarized graphically in FIG. 21.

S. suis ST5 = assay: as above
Experimental: as §1, §2

S. suis ST11 = assay: as above
Experimental: as §1, §2

S. suis 10 (ST2) = assay: as above
Experimental: as §1, §2

S. suis 6388 (ST1) = assay: as above
Experimental: as §1, §2

S. suis ST14 = assay: as above
Experimental: as §1, §2

S. suis ST2 = assay: as above
Experimental: as §1, §2

S. suis ST1 = assay: as above
Experimental: as §1, §2

S. suis 7197 (ST7) = assay: as above
Experimental: as §1, §2

S. suis ST9 = assay: as above
Experimental: as §1, §2

S. suis ST10 = assay: as above
Experimental: as §1, §2

S. suis ST13 = assay: as above
Experimental: as §1, §2

S. suis ST4 = assay: as above
Experimental: as §1, §2

S. suis ST6 = assay: as above
Experimental: as §1, §2

S. suis ST8 = assay: as above
Experimental: as §1, §2

S. suis strain 7997 = assay: PlySs2 OD600 lytic activity test, various concentrations

B1: ΔPlySs1: truncated PlySs1 lysin, SEQ ID NO:2, N-terminal 254 amino acids: only N-terminal enzymatic and central binding domains (protein, listed as Streptococcus suis)
chain: MTINLETSIRWMSDRVGKVSYSMDYRNGPNSYDCSSAVYYALMAGGAISAGWAVNTEYMHDWLIRNGYVLVAENKPFNAQRHDVCILGKRGYSSGAGGHVVIFVDNVNVIHCNYARNGISIDNYNQVHRGMYYYLYRPANQPSISNKSLDQLVKETLAGVHGNGDTRKASLGSQYEAVMAVINGKASASEKSDEELAREVLAGKHGAGEDRKRSLGPRYEPVQAKVNELLKAKEKPSETAKNEPQTVQFKEDGDL
- 1-hour treated/untreated OD600-ratio (S. suis 6112 (ST1); 6.5 μg/ml): 0.14
- 1-hour treated/untreated OD600-ratio (S. suis 6112 (ST1); 13 μg/ml): 0.11
- 1-hour treated/untreated OD600-ratio (S. suis 6112 (ST1); 30 μg/ml): 0.06
- 1-hour treated/untreated OD600-ratio (S. suis 6112 (ST1); 65 μg/ml): 0.02
- 1-hour treated/untreated OD600-ratio (S. suis 6112 (ST1); 130 μg/ml): 0.01
- 1-hour treated/untreated OD600-ratio (S. suis ST5; 6.5 μg/ml): 0.78
- 1-hour treated/untreated OD600-ratio (S. suis ST5; 13 μg/ml): 0.59
- 1-hour treated/untreated OD600-ratio (S. suis ST5; 30 μg/ml): 0.39
- 1-hour treated/untreated OD600-ratio (S. suis ST5; 65 μg/ml): 0.22
- 1-hour treated/untreated OD600-ratio (S. suis ST5; 130 μg/ml): 0.10
- 1-hour treated/untreated OD600-ratio (S. suis ST11; 6.5 μg/ml): 0.64
- 1-hour treated/untreated OD600-ratio (S. suis ST11; 13 μg/ml): 0.47
- 1-hour treated/untreated OD600-ratio (S. suis ST11; 30 μg/ml): 0.32
- 1-hour treated/untreated OD600-ratio (S. suis ST11; 65 μg/ml): 0.19
- 1-hour treated/untreated OD600-ratio (S. suis ST11; 130 μg/ml): 0.07
- 1-hour treated/untreated OD600-ratio (S. suis 10 (ST2); 6.5 μg/ml): 0.29
- 1-hour treated/untreated OD600-ratio (S. suis 10 (ST2); 13 μg/ml): 0.18
- 1-hour treated/untreated OD600-ratio (S. suis 10 (ST2); 30 μg/ml): 0.10
- 1-hour treated/untreated OD600-ratio (S. suis 10 (ST2); 65 μg/ml): 0.05
- 1-hour treated/untreated OD600-ratio (S. suis 10 (ST2); 130 μg/ml): 0.02
- 1-hour treated/untreated OD600-ratio (S. suis 6388 (ST1); 6.5 μg/ml): 0.15
- 1-hour treated/untreated OD600-ratio (S. suis 6388 (ST1); 13 μg/ml): 0.13
- 1-hour treated/untreated OD600-ratio (S. suis 6388 (ST1); 30 μg/ml): 0.06
- 1-hour treated/untreated OD600-ratio (S. suis 6388 (ST1); 65 μg/ml): 0.03
- 1-hour treated/untreated OD600-ratio (S. suis 6388 (ST1); 130 μg/ml): 0.02
- 1-hour treated/untreated OD600-ratio (S. suis ST14; 6.5 μg/ml): 0.79
- 1-hour treated/untreated OD600-ratio (S. suis ST14; 13 μg/ml): 0.57
- 1-hour treated/untreated OD600-ratio (S. suis ST14; 30 μg/ml): 0.33
- 1-hour treated/untreated OD600-ratio (S. suis ST14; 65 μg/ml): 0.15
- 1-hour treated/untreated OD600-ratio (S. suis ST14; 130 μg/ml): 0.06
- 1-hour treated/untreated OD600-ratio (S. suis ST2; 6.5 μg/ml): 0.79
- 1-hour treated/untreated OD600-ratio (S. suis ST2; 13 μg/ml): 0.70
- 1-hour treated/untreated OD600-ratio (S. suis ST2; 30 μg/ml): 0.49
- 1-hour treated/untreated OD600-ratio (S. suis ST2; 65 μg/ml): 0.34
- 1-hour treated/untreated OD600-ratio (S. suis ST2; 130 μg/ml): 0.17
- 1-hour treated/untreated OD600-ratio (S. suis ST1; 6.5 μg/ml): 0.80
- 1-hour treated/untreated OD600-ratio (S. suis ST1; 13 μg/ml): 0.34
- 1-hour treated/untreated OD600-ratio (S. suis ST1; 30 μg/ml): 0.36
- 1-hour treated/untreated OD600-ratio (S. suis ST1; 65 μg/ml): 0.19
- 1-hour treated/untreated OD600-ratio (S. suis ST1; 130 μg/ml): 0.06
- 1-hour treated/untreated OD600-ratio (S. suis 7197 (ST7); 6.5 μg/ml): 0.64
- 1-hour treated/untreated OD600-ratio (S. suis 7197 (ST7); 13 μg/ml): 0.49
- 1-hour treated/untreated OD600-ratio (S. suis 7197 (ST7); 30 μg/ml): 0.39
- 1-hour treated/untreated OD600-ratio (S. suis 7197 (ST7); 65 μg/ml): 0.16
- 1-hour treated/untreated OD600-ratio (S. suis 7197 (ST7); 130 μg/ml): 0.07
- 1-hour treated/untreated OD600-ratio (S. suis ST9; 6.5 μg/ml): 0.50
- 1-hour treated/untreated OD600-ratio (S. suis ST9; 13 μg/ml): 0.30
- 1-hour treated/untreated OD600-ratio (S. suis ST9; 30 μg/ml): 0.23
- 1-hour treated/untreated OD600-ratio (S. suis ST9; 65 μg/ml): 0.13
- 1-hour treated/untreated OD600-ratio (S. suis ST9; 130 μg/ml): 0.05
- 1-hour treated/untreated OD600-ratio (S. suis ST10; 6.5 μg/ml): 0.85
- 1-hour treated/untreated OD600-ratio (S. suis ST10; 13 μg/ml): 0.72
- 1-hour treated/untreated OD600-ratio (S. suis ST10; 30 μg/ml): 0.55
- 1-hour treated/untreated OD600-ratio (S. suis ST10; 65 μg/ml): 0.44
- 1-hour treated/untreated OD600-ratio (S. suis ST10; 130 μg/ml): 0.28
- 1-hour treated/untreated OD600-ratio (S. suis ST13; 6.5 μg/ml): 0.32
- 1-hour treated/untreated OD600-ratio (S. suis ST13; 13 μg/ml): 0.17
- 1-hour treated/untreated OD600-ratio (S. suis ST13; 30 μg/ml): 0.04
- 1-hour treated/untreated OD600-ratio (S. suis ST13; 65 μg/ml): 0.02
- 1-hour treated/untreated OD600-ratio (S. suis ST13; 130 μg/ml): 0.02
- 1-hour treated/untreated OD600-ratio (S. suis ST4; 6.5 μg/ml): 0.63
- 1-hour treated/untreated OD600-ratio (S. suis ST4; 13 μg/ml): 0.47
- 1-hour treated/untreated OD600-ratio (S. suis ST4; 30 μg/ml): 0.32
- 1-hour treated/untreated OD600-ratio (S. suis ST4; 65 μg/ml): 0.22
- 1-hour treated/untreated OD600-ratio (S. suis ST4; 130 μg/ml): 0.12
- 1-hour treated/untreated OD600-ratio (S. suis ST6; 6.5 μg/ml): 0.76
- 1-hour treated/untreated OD600-ratio (S. suis ST6; 13 μg/ml): 0.56
- 1-hour treated/untreated OD600-ratio (S. suis ST6; 30 μg/ml): 0.40
- 1-hour treated/untreated OD600-ratio (S. suis ST6; 65 μg/ml): 0.21
- 1-hour treated/untreated OD600-ratio (S. suis ST6; 130 μg/ml): 0.06
- 1-hour treated/untreated OD600-ratio (S. suis ST8; 6.5 μg/ml): 0.25
- 1-hour treated/untreated OD600-ratio (S. suis ST8; 13 μg/ml): 0.12
- 1-hour treated/untreated OD600-ratio (S. suis ST8; 30 μg/ml): 0.06
- 1-hour treated/untreated OD600-ratio (S. suis ST8; 65 μg/ml): 0.03
- 1-hour treated/untreated OD600-ratio (S. suis ST8; 130 μg/ml): 0.03

B2: PlySs2: Streptococcus suis prophage lysin, SEQ ID NO:3; N-terminal CHAP domain and C-terminal SH3-type 5 domain (protein, listed as Streptococcus suis)
chain: MTTVNEALNNVRAQVGSGVSVGNGECYALASWYERMISPDATVGLGAGVGWVSGAIGDTISAKNIGSSYNWQANGWTVSTSGPFKAGQIVTLGATPGNPYGHVVIVEAVDGDRLTILEQNYGGKRYPVRNYYSAASYRQQVVHYITPPGTVAQSAPNLAGSRSYRETGTMTVTVDALNVRRAPNTSGEIVAVYKRGESFDYDTVIIDVNGYVWVSYIGGSGKRNYVATGATKDGKRFGNAWGTFK
- concentration giving acute lytic activity (S. suis strain 7997): ≥ 8 µg/mL

Source: patent publication US11111484B2, “Streptococcus bacteriophage lysins for detection and treatment of gram positive bacteria” (priority 2011, dated 2021)
